Experiment [1] deals with T1, HER2 ECD (human, UniProt P04626 23-652).
T1 construct: extracellular domain; also called ErbB2; HER2/neu
Kind of experiment: SPR (Biacore 8K); antibody captured on anti-human IgG Fc CM5 chip; HER2 ECD 0.625-80 nM as analyte; 1:1 global fit; 25 C. (In general: SPR reads the build-up and loss of mass on a sensor chip optically.)

The target of experiment [2] is T2, HER2 ECD (human, UniProt P04626 23-652).
T2 construct: extracellular domain
Kind of experiment: SPR Biacore, binding to Her2 ECD, 1:1 binding model (global fit); HER-10 expressed from Expi293 cells. Here is the method: (§1) Antibody binding to HER2 was analyzed by Biacore 8K (GE Healthcare) surface plasmon resonance instrument (SPR). All reagents used were from GE Healthcare. HBS-EP+ was used as the sample and running buffer and the interaction was measured at 25° C. […] HER2 ECD (0.625-80 nM, 2-fold dilution) was passed over the captured anti-HER2 antibody at 30 μl/min flow rate, and association and dissociation phases were recorded for 300 and 600 sec, respectively. The sensor chip was regenerated by a 30 sec injection of 3M MgCl₂ at 30 μl/min at the end of each injection cycle. […] The conditioned media was diluted in HBS-EP+ to achieve a capture level that produced a final HER2 binding response of less than 200 RU.
(§2) SK-BR-3 cells were reverse transfected with plasmid DNA using Lipofectamine LTX and PLUS Reagent in fibronectin-coated flasks. The culture supernatant was replaced with serum-free medium (Opti-MEM) one day post-transfection. Three days post-transfection, the culture medium was concentrated using centrifugal concentrators (MilliporeSigma) and analyzed by Biacore SPR binding to Her2 ECD with data fitted to a 1:1 binding model (global fit).

Experiment [3] deals with T2, HER2 ECD. Kind of experiment: SPR Biacore, binding to Her2 ECD, 1:1 binding model (global fit); HER-10 from concentrated SK-BR-3 culture medium. Here is the method: as §1, §2
The target of the next experiment is HER2 on SK-BR-3 cells (human, UniProt P04626 23-1255). Description: cell-based or functional assay.

B1: HER-10 recombinant (naked) antibody (antibody, human IgG1, kappa, V domains shown)
VH: QVQLQQSGPELVKPGASLKLSCTASGFNIKDTYIHWVKQRPEQGLEWIGRIYPTNGYTRYDPKFQDKATITADTSSNTAYLQVSRLTSEDTAVYYCSRWGGDGFYAMDYWGQGASVTVSS
VL: DIVMTQSHKFMSTSVGDRVSITCKASQDVNTAVAWYQQKPGHSPKLLIYSASFRYTGVPDRFTGSRSGTDFTFTISSVQAEDLAVYYCQQHYTTPPTFGGGTKVEIKR
notes: also called Ab-HER-10
On to B1, for which, in the experiment with HER2 ECD [1], binding was put at a Kd of 1.2 nM, the koff stood at 0.00021 s⁻¹ and the kon was determined as 190000 M⁻¹ s⁻¹.

B2: HER-10 vectorized anti-HER2 antibody (antibody, human IgG1, kappa, V domains shown)
VH: B1 VH
VL: B1 VL
notes: also called Ab-HER-10
Take B2: in the experiment with HER2 ECD [1], the affinity, expressed as Kd, was 1.5 nM; the dissociation rate constant (koff) turned out to be 0.00025 s⁻¹; the kon is 170000 M⁻¹ s⁻¹.

B3: HER-10 anti-HER2 antibody (Ab-HER-10) (antibody, human IgG1, kappa, V domains shown)
VH: B1 VH
VL: B1 VL
With B3, the dissociation constant (Kd) was 1.58 nM with HER2 ECD [2] and 0.96 nM in the experiment with HER2 ECD [3].

B4: Ab-HER-78 (bispecific antibody, human IgG1, kappa)
heavy: QVQLVQSGAEVKKPGASVKVSCKASGYSFTGYFINWVREAPGQGLEWMGHISSSYATSTYNQKFQGRVTFTVDTSSSTAYMELSSLRSEDTAVYYCVRSGNYEEYAMDYWGQGTLVTVSSASTKGPSVFPLAPSSKSTSGGTAALGCLVKDYFPEPVTVSWNSGALTSGVHTFPAVLQSSGLYSLSSVVTVPSSSLGTQTYICNVNHKPSNTKVDKRVEPKSCDKTHTCPPCPAPELVGGPSVFLLPPKPKDTLMISRTPEVTCVVVDVSHEDPEVKFNWYVDGVEVHNAKTKPPEEQYNSTLRVVSVLTVLHQDWLNGKEYKCKVSNKALPAPIEKTISKAKGQPREPQVYTLPPSRDELTKNQVSLTCLVKGFYPSDIAVEWESNGQPENNYKTTPLVLDSDGSFFLYSKLTVDKSRWQQGNVFSCSVMHEALHNHYTQKSLSLSPGK
light: not shown
Take B4: in the experiment with HER2 on SK-BR-3 cells, the “Emax (SK-BR-3 cell proliferation, CellTiter-Glo 2.0, five days)” value stood at 56.5% and the “IC50 (SK-BR-3 cell proliferation, CellTiter-Glo 2.0, five days)” value is 0.08 µg/mL.

As usually defined, the Kd is a measure of binding affinity in units of concentration. The low end stands for tighter binding, the high end for weaker binding. As usually defined, the koff is the rate constant with which the complex falls apart. Read a high koff as a short-lived complex. As usually defined, the kon is a measure of how fast the partners come together. The low end stands for slower complex formation, the high end for faster complex formation.

The values above are taken from US20250295809A1 (published 2025).
